Measured values reported in paper PMC5703946, “Modification and functional adaptation of the MBF1 gene family in the lichenized fungus Endocarpon pusillum under environmental stress” (Scientific Reports, 2017).

Target: T1, His-yTBP (yeast TATA-box-binding protein) (S. cerevisiae, UniProt P13393 1-240)
T1 sequence (looked up): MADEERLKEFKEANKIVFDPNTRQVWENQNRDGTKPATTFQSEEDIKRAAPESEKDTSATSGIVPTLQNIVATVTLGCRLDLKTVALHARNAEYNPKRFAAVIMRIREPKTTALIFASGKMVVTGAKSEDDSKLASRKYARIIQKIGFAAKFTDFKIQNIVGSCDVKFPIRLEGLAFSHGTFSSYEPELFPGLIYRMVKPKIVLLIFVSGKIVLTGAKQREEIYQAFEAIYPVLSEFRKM
Assay: pull-down; His-yTBP held on Ni-NTA agarose beads (from soluble E. coli lysate, washed three times); equal amounts of purified GST-MBF1 proteins or purified GST incubated with the beads for 4 h at 4 °C; beads washed three times; detected by immunoblot (Wes) with anti-His and anti-GST antibodies
Details: both partners purified

B1: GST-yMBF1 (Saccharomyces cerevisiae multiprotein-bridging factor 1) (natural protein, S. cerevisiae, UniProt O14467 1-151, looked up)
chain: MSDWDTNTIIGSRARAGGSGPRANVARSQGQINAARRQGLVVSVDKKYGSTNTRGDNEGQRLTKVDRETDIVKPKKLDPNVGRAISRARTDKKMSQKDLATKINEKPTVVNDYEAARAIPNQQVLSKLERALGVKLRGNNIGSPLGAPKKK
notes: MBF1 of Saccharomyces cerevisiae (amino acids 1 to 151 by the domain limits in the methods); source: E. coli BL21, purified (glutathione agarose beads, eluted)
B1: binds.
